Molecular target: nsp12 (RNA-dependent RNA polymerase);nsp7;nsp8 (SARS-CoV-2;SARS-CoV-2;SARS-CoV-2, UniProt P0DTD1;P0DTD1;P0DTD1 4393-5324;3860-3942;3943-4140, ||)
Experiment: cryo-EM structure (2.5 A)
Settings: protein: recombinant;recombinant;recombinant; tags: C-terminal TEV site-double StrepII on the nsp5-nsp7-nsp8-nsp12 polyprotein;;; copies: 1;1;2

B1: primer:template RNA duplex (dsRNA)
RNA 1: CAGUGCUAUGUGAGAUUAAGUUAU
RNA 2: UUUUUCAUAACUUAAUCUCACAUAGCACUG
binding result: binds

Reference: article PMC7896311, “Structure of the SARS-CoV-2 RNA-dependent RNA polymerase in the presence of favipiravir-RTP”
